Consider five molecules from paper PMC10816986, “The Role of Key Amino Acids of the Human Fe(II)/2OG-Dependent Dioxygenase ALKBH3 in Structural Dynamics and Repair Activity toward Methylated DNA” (International Journal of Molecular Sciences, 2024).

Numbering of substitutions follows the chain as printed.

On the set-up of series [1]: method as in PMID 22443471. The settings on record: cited from earlier work.
Details of series [2]: method as in PMID 35956910, doi:10.1134/S1068162019060190. The following applies: previous investigations; read-out: Kd for complexes with transitional metals and 2OG; cited from earlier work.
Series [3] has as its system m3C_FRET substrate (m3C-containing DNA). On the set-up: method as in PMID 31847292. The following applies: AlkB-ssDNA, pre-steady-state; cited from earlier work.
In series [4] the target is T1, ALKBH3 wt (Homo sapiens, UniProt Q96Q83 1-286).
T1 sequence: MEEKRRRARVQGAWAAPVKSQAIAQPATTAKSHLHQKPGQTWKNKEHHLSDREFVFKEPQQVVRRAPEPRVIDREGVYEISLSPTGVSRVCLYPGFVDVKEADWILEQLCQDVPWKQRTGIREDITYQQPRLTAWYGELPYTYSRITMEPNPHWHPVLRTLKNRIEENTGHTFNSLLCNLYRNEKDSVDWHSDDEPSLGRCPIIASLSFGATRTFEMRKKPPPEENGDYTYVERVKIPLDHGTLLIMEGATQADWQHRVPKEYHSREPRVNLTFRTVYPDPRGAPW
The experiment in a line: stopped-flow FRET kinetics (DynaFit); Fe(II), 2OG; enzyme-product complex; Titration: 50 mM HEPES-KOH pH 7.8, 50 mM KCl, 10 mM MgCl2, 2 mM EDTA, 25 °C, 1 µM apoprotein; stopped-flow: with Fe(II) and 2OG, 0.5-4.0 µM DNA (buffer not in material). The settings on record: protein: recombinant; tags: N-terminal His-tag (pET28a); label: 5'-6-FAM, 3'-BHQ1; single strand.

Series [5] concerns the target T2, ALKBH3 Y143F (Homo sapiens, UniProt Q96Q83 1-286, Y143F).
T2 sequence: T1 sequence with Y143F
The description is as above. The following applies: protein: recombinant; tags: N-terminal His-tag (pET28a); label: 5'-6-FAM, 3'-BHQ1; single strand.

A further series addresses T3, ALKBH3 L177A (Homo sapiens, UniProt Q96Q83 1-286, L177A).
T3 sequence: T1 sequence with L177A
The experiment in a line: intrinsic Trp fluorescence titration; apoprotein, 2 mM EDTA, no Fe(II)/2OG; Titration: 50 mM HEPES-KOH pH 7.8, 50 mM KCl, 10 mM MgCl2, 2 mM EDTA, 25 °C, 1 µM apoprotein; stopped-flow: with Fe(II) and 2OG, 0.5-4.0 µM DNA (buffer not in material). The settings on record: protein: recombinant; (Ni-chelating purification); single strand.

Series [6] has as its target T1, ALKBH3 wt. The description is as above. The settings on record: protein: recombinant; tags: N-terminal His-tag (pET28a); single strand.
The target of another series is T4, ALKBH3 H191A (Homo sapiens, UniProt Q96Q83 1-286, H191A).
T4 sequence: T1 sequence with H191A
Described as above. The settings on record: protein: recombinant; (Ni-chelating purification); single strand.

In the next series the target is T5, ALKBH3 Y143A (Homo sapiens, UniProt Q96Q83 1-286, Y143A).
T5 sequence: T1 sequence with Y143A
The description is as above. The following applies: protein: recombinant; tags: N-terminal His-tag (pET28a); single strand.

For series [7], the system named is single-stranded DNA substrate m3C_FAM. Set-up: method as in PMID 35956910. The settings on record: similar m3C-containing substrate, identical conditions; cited from earlier work.
The target in series [8] is T1, ALKBH3 wt. The experiment in a line: stopped-flow FRET kinetics (DynaFit); Fe(II), 2OG; overall Ka = K1+K1K2+K1K2K3; Titration: 50 mM HEPES-KOH pH 7.8, 50 mM KCl, 10 mM MgCl2, 2 mM EDTA, 25 °C, 1 µM apoprotein; stopped-flow: with Fe(II) and 2OG, 0.5-4.0 µM DNA (buffer not in material). The settings on record: protein: recombinant; tags: N-terminal His-tag (pET28a); label: 5'-6-FAM, 3'-BHQ1; single strand.

Series [9] has as its target T2, ALKBH3 Y143F. The series is described as above. The settings on record: protein: recombinant; tags: N-terminal His-tag (pET28a); label: 5'-6-FAM, 3'-BHQ1; single strand.

Broadly, the Kd is a measure of binding affinity in units of concentration.

B1: AlkB: E. coli AlkB dioxygenase, literature comparison (protein, UniProt P05050 1-216, looked up)
Alpha-ketoglutarate-dependent …: MLDLFADAEPWQEPLAAGAVILRRFAFNAAEQLIRDINDVASQSPFRQMVTPGGYTMSVAMTNCGHLGWTTHRQGYLYSPIDPQTNKPWPAMPQSFHNLCQRAATAAGYPDFQPDACLINRYAPGAKLSLHQDKDEPDLRAPIVSVSLGLPAIFQFGGLKRNDPLKRLLLEHGDVVVWGGESRLFYHGIQPLKAGFHPLTIDCRYNLTFRQAGKKE
Regarding B1, the Tm in series [1] is 54 °C. For the same molecule, the Kd in [2] was 15 to 50 µM. In addition, the “kr (hydroxylation of the substrate's methyl group)” value in series [3] was 0.19 s⁻¹.
Turning to ACAGGATCCGGCATA (ssDNA, none (m3C demethylated to C)) [m3C_FRET repaired product], the values for the Kd in the series with ALKBH3 wt [4] and with ALKBH3 Y143F [5] were 0.72 µM and 0.083 µM, respectively.
For ACAGGATCCGGCATA (ssDNA, N3-methylcytosine at position 9) [m3C], the Kd in the series with ALKBH3 L177A was determined as 5.7 ± 0.3 µM; with ALKBH3 wt [6] it was 2.8 ± 0.1 µM; with ALKBH3 H191A it was 4.3 ± 0.3 µM; with ALKBH3 Y143A, 6.3 ± 0.6 µM.

B2: ALKBH2: human AlkB homolog 2 dioxygenase, literature comparison (protein, UniProt Q6NS38 1-261, looked up)
DNA oxidative demethylase …: MDRFLVKGAQGGLLRKQEEQEPTGEEPAVLGGDKESTRKRPRREAPGNGGHSAGPSWRHIRAEGLDCSYTVLFGKAEADEIFQELEKEVEYFTGALARVQVFGKWHSVPRKQATYGDAGLTYTFSGLTLSPKPWIPVLERIRDHVSGVTGQTFNFVLINRYKDGCDHIGEHRDDERELAPGSPIASVSFGACRDFVFRHKDSRGKSPSRRVAVVRLPLAHGSLLMMNHPTNTHWYHSLPVRKKVLAPRVNLTFRKILLTKK
Turning to B2, the “observed rate constant for demethylation, kobs” value in series [7] was 0.22 min⁻¹. For the same molecule, the Kd in series [2] was 15 to 50 µM.
As to ACAGGATCCGGCATA (ssDNA, N3-methylcytosine at position 9) [m3C_FRET], the Ka in the series with ALKBH3 wt [8] amounted to 1.9e+06 M⁻¹; in the series with ALKBH3 Y143F [9], 1.4e+06 M⁻¹.
